How the values were obtained:
[1] = target: the molecule itself; experiment: mass photometry; Refeyn TwoMP; FLAG-DONSON diluted to 200 nM in egg lysis buffer (10 mM HEPES-KOH pH 7.7, 50 mM KCl, 2.5 mM MgCl2, 250 mM sucrose), 2 μL mixed into an 18 μL droplet of PBS
[2] = target: T1, Recombinant Xenopus GINS (preparation of ref. 54, Sf9 expression) (Xenopus laevis, UniProt Q7ZT47 1-196; Q7ZT46 1-185; Q7ZT01 1-210; Q7ZT48 1-221); experiment: co-IP; purified FLAG-DONSON, GINS and TOPBP1^1−530 mixed, each 0.5 μM in IP wash buffer, 15 min room temperature; anti-FLAG beads 30 min room temperature; immunoblot (fig. S11B, lanes 22 to 24); details: both partners purified
T1 construct: PSF1 subunit of Xenopus GINS; PSF2 subunit of Xenopus GINS; PSF3 subunit of Xenopus GINS; SLD5 subunit of Xenopus GINS; also called purified GINS; source: Sf9 expression, purified; copies: + + +
T1 sequence (looked up) 1: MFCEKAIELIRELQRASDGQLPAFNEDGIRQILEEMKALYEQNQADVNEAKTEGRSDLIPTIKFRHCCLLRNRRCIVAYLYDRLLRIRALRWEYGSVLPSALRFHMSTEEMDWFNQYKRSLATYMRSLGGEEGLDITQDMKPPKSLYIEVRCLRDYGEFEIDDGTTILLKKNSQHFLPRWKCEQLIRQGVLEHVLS
T1 sequence (looked up) 2: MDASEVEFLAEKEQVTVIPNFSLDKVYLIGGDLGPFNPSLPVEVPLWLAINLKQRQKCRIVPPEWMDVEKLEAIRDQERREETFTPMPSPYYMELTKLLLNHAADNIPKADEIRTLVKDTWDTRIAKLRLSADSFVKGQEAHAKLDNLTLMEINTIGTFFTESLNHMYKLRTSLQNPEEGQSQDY
T1 sequence (looked up) 3: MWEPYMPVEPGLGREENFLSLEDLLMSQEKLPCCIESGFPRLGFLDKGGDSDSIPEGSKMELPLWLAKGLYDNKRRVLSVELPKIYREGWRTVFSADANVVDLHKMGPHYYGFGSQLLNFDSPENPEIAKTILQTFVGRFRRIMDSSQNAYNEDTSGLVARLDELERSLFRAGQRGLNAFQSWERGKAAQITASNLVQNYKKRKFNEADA
T1 sequence (looked up) 4: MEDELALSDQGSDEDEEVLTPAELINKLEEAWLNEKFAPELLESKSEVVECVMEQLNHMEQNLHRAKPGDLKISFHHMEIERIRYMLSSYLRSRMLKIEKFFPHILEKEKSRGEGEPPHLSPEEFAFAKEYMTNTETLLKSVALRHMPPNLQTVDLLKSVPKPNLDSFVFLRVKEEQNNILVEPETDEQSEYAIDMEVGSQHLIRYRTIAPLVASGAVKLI

B1: Recombinant FLAG-tagged DONSON, wild type (natural protein, Xenopus laevis, UniProt Q5U4U4 1-579, looked up)
chain: MAELLPGYSPSFKKPSEILRLSRRRSRSEASKTGLSPFSPGDVIKRVPGLRPFSPGPNKGAGVKRRNPFASLENTVCSPVKRRAETVAEYGAASLEPRALSAVRPSCLGQDSPEPPQFNSVEDVIWGDPLAADADPLVKTESPEKPAPACEIPKGSVTFPADWSLKTRLLFTSSHSFSWADHLKAQEEAQGLVMQCRATAVNLPHSIQEPKLSTDLRCAFQQSLVHWIHPSLPWVQLFPRIGVDRKMAGKNTPWSQDESLQQVLMSEWALSFTSLYNLLKAKLCPYFYVCTYQFTVLFRAAGLAGSDVITAVMSPTTRGLREAMKNEGITFSQPLVEDDTGKKQKKPEAASQGDINPEKENGTAEADEASDESDEDESFSWLEEMGVEDKIKKPDSISIKLRKEKNEVKLDHKPESVVLVKGTNTFTLLNFLINCKSIVAAAGLQAGLPPTLLSPVAFRGATMHALKARSVNVKTRVNSGYKDQFSLEITGPIMPHSLHSLTMLLQSAQRGSFSAGLYTHEPTAVFNTPIHSQAVKEISADLQNCGLHPCTVEQLTQVNELGKLSLRHLEMTDYRYTWK
notes: Xenopus DONSON (Downstream Neighbor of SON); also called rFLAG-DONSON; FLAG-DONSON; source: E. coli Rosetta (DE3) pLysS, purified (Glutathione Sepharose, PreScission cleavage, Superdex 200); not shown: GST, N-terminal, cleaved
[1]
  stoichiometry N: 2
[2]
  binding result: binds

B2: Recombinant FLAG-tagged DONSON N430A (natural protein, Xenopus laevis, UniProt Q5U4U4 1-579, looked up)
chain: MAELLPGYSPSFKKPSEILRLSRRRSRSEASKTGLSPFSPGDVIKRVPGLRPFSPGPNKGAGVKRRNPFASLENTVCSPVKRRAETVAEYGAASLEPRALSAVRPSCLGQDSPEPPQFNSVEDVIWGDPLAADADPLVKTESPEKPAPACEIPKGSVTFPADWSLKTRLLFTSSHSFSWADHLKAQEEAQGLVMQCRATAVNLPHSIQEPKLSTDLRCAFQQSLVHWIHPSLPWVQLFPRIGVDRKMAGKNTPWSQDESLQQVLMSEWALSFTSLYNLLKAKLCPYFYVCTYQFTVLFRAAGLAGSDVITAVMSPTTRGLREAMKNEGITFSQPLVEDDTGKKQKKPEAASQGDINPEKENGTAEADEASDESDEDESFSWLEEMGVEDKIKKPDSISIKLRKEKNEVKLDHKPESVVLVKGTNTFTLLAFLINCKSIVAAAGLQAGLPPTLLSPVAFRGATMHALKARSVNVKTRVNSGYKDQFSLEITGPIMPHSLHSLTMLLQSAQRGSFSAGLYTHEPTAVFNTPIHSQAVKEISADLQNCGLHPCTVEQLTQVNELGKLSLRHLEMTDYRYTWK
notes: Xenopus DONSON with N430A; source: E. coli Rosetta (DE3) pLysS, purified (Glutathione Sepharose, PreScission cleavage, Superdex 200); not shown: GST, N-terminal, cleaved
[2]
  binding result: binds
